Source: article PMC8688910

Target: IpaB (invasion plasmid antigen B), C-terminal his6-tag, produced in CFPS (S. flexneri 2a)
Assay: SEC-MALS; Superdex200 10/30 Increase, 50 mM Tris pH 8, 150 mM NaCl, 0.1% (v/v) LDAO, 0.5 mL/min, column 25 °C, about 50-100 μg injected

“IpaB (invasion plasmid antigen B), C-terminal his6-tag, produced in CFPS (natural protein)” gave a stoichiometry N of 2.
